Paper PMC10502012

B1: TASL_(1-13) peptide R9A (peptide)
chain: MLSEGYLYAIAYL
B2: TASL_(1-13) peptide S3A (peptide)
chain: MLAEGYLYRIAYL
B3: TASL_(1-13) peptide Y6A (peptide)
chain: MLSEGALYRIAYL
B4: TASL_(1-13) peptide Y8A (peptide)
chain: MLSEGYLARIAYL
B5: TASL_(1-13) peptide L2A (peptide)
chain: MASEGYLYRIAYL
B6: TASL_(1-13) peptide E4A (peptide)
chain: MLSAGYLYRIAYL
B7: TASL_(1-13) peptide L7A (peptide)
chain: MLSEGYAYRIAYL
B8: TASL_(1-13) peptide M1A (peptide)
chain: ALSEGYLYRIAYL
B9: TASL peptide with a length of 14 residues C14A (peptide)
chain: MLSEGYLYRIAYLA
B10: sybody 27 (VHH)
VHH: QVQLVESGGGSVQAGGSLRLSCAASGDIETIWYLGWFRQAPGKEREGVAALSTVTGSTYYADSVKGRFTVSLDNAKNTVYLQMNSLKPEDTALYYCAAAYTGWMAPLWQWVYSYWGQGTQVTVSA

Biological target: chicken PHT1 (purified, wild type)
Sequence (chain, as listed by the source): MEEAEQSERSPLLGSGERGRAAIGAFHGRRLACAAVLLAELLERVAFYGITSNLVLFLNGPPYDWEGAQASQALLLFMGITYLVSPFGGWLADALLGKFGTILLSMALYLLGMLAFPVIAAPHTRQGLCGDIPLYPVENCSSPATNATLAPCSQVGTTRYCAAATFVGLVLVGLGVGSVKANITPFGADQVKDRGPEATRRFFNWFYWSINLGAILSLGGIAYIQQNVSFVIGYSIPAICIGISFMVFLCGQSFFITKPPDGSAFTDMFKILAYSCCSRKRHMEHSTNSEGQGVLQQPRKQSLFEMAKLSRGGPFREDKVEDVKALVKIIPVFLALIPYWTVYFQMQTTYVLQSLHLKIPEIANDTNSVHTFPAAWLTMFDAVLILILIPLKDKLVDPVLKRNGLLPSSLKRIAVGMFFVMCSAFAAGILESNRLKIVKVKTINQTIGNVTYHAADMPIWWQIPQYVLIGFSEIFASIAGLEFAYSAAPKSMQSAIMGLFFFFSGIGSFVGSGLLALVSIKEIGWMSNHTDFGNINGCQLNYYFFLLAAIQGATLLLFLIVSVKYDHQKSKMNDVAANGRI
Experiment: thermal stability (thermal shift) of PHT1 with TASL peptides
Settings: chain shown with the change; peptide concentration 50 µM; parent: est. 13.6; read off a plot

Going from B1 to B2, the other: ΔTm rises from 6.9 Kelvin to 13 Kelvin.

First: B3
Second: B4
The other: ΔTm of the first is higher: 11 Kelvin for the first, 9.9 Kelvin for the second.

First: B5
Second: B6
The other: ΔTm of the first is higher: 5.6 Kelvin for the first, 0.45 Kelvin for the second.

First: B7
Second: B8
The other: ΔTm of the first is higher: 13 Kelvin for the first, 5.1 Kelvin for the second.

Same assay, conditions: chain shown with the change; peptide concentration 50 µM; read off a plot

Binder B9 has an other: ΔTm of 15 Kelvin.

Biological target: biotinylated chicken PHT1 (BLI sample) (chicken)
Sequence (A6QQL0 other isoform, or with tags, fused parts or gaps): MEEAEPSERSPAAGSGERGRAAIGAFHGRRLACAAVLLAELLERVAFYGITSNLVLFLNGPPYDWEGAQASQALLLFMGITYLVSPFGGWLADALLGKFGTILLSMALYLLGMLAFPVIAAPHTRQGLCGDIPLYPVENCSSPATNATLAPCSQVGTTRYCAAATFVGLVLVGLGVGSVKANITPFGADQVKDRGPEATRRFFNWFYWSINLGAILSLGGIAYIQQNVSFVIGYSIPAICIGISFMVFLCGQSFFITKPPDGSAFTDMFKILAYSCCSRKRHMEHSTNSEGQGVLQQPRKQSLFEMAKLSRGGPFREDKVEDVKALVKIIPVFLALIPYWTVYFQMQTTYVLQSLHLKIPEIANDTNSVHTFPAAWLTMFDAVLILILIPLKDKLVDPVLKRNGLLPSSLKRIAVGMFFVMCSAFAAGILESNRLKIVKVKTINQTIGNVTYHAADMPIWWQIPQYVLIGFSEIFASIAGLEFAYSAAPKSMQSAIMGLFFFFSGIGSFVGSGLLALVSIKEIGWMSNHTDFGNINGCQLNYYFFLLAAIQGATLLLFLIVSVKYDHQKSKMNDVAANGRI
Experiment: BLI; biotinylated PHT1 on streptavidin biosensors; Sb27 6-800 nM; 22 °C; 50 mM HEPES pH 7.5, 100 mM NaCl, 0.02% DDM/0.004% CHS, 0.5% BSA; 1:1 binding model
Settings: not given

B10 was tested, and the Kd was 400 nM.
